Laboratory results taken from US20250206828A1, “ANTI-ADENOSINE RECEPTOR (A2aR) ANTIBODIES AND THE USE THEREOF” (Adept Therapeutics Inc., priority 2022, published 2025).
Where two headings read alike, the source gives them in different places.

What was measured:
[1] = biological target: T1, human adenosine A2A receptor (A2aR) (human, UniProt P29274 1-412); experiment: cell-based or functional assay
[2] = biological target: T1, human adenosine A2A receptor (A2aR); experiment: flow cytometry, HEK293-hA2aR cells, supernatant 1 ug/ml
[3] = biological target: T1, human adenosine A2A receptor (A2aR); experiment: flow cytometry titration, HEK293-hA2aR cells, purified antibody
[4] = biological target: T1, human adenosine A2A receptor (A2aR); experiment: flow cytometry, HEK293-hA2aR cells, supernatant 1 ug/ml

T1 sequence (P29274 whole entry): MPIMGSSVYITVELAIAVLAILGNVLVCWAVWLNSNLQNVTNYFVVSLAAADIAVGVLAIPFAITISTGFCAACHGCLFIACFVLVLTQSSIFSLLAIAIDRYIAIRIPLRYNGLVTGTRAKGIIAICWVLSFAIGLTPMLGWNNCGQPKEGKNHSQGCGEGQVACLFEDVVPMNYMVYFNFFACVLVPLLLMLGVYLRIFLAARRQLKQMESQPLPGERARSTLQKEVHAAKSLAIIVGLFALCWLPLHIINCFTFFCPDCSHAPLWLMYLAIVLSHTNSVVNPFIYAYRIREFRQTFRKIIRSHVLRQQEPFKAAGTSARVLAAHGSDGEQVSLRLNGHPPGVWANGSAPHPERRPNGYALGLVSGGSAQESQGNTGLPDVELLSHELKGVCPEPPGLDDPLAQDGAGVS

B1: Hu3F8-H3/Hu3F8-L5 (antibody, human IgG1, V domains shown)
VH: EVQLVQSGAEVKKPGASVKVSCKASGFTFTRYWMNWVRQAPGQGLEWIGRIDPSDSETHYNHKFWGRATLTVDTSTSTVYMELSSLRSEDTAVYYCLRSLYGKGDYWGQGTTVTVSS
VL: DVVMTQSPLSLPVTPGEPASISCRSSQSIVHSNGNTYLEWYLQKPGQSPQLLIYKVSNRFSGVPDRFSGSGSGTDFTLKISRVEAEDVGVYYCYQGSHVPLTFGGGTKVEIK
notes: Human IgG1 FES (L234F, L235E, P331S) and human Ig kappa constant domains; also called Hu3F8 VH3/VL5
With B1 the “IC50 of blocking activity, cAMP-Glo, 300 nM NECA, HEK293-hA2aR cells, supernatant” value (shortened to “IC50 of blocking activity, cAMP-Glo”) [1] was 1.5 nM, the MFI [2] was 1850 MFI and the EC50 [3] was 0.83 nM.

B2: Hu3F8-H3/Hu3F8-L2 (antibody, human IgG1, V domains shown)
VH: EVQLVQSGAEVKKPGASVKVSCKASGFTFTRYWMNWVRQAPGQGLEWIGRIDPSDSETHYNHKFWGRATLTVDTSTSTVYMELSSLRSEDTAVYYCLRSLYGKGDYWGQGTTVTVSS
VL: DVVMTQSPLSLPVTLGQPASISCRSSQSIVHSNGNTYLEWYQQRPGQSPRRLIYKVSNRFSGVPDRFSGSGSGTDFTLKISRVEAEDVGVYYCYQGSHVPLTFGGGTKVEIK
For B2, the MFI [4] was 93 MFI.

B3: Hu3F8-H3/Hu3F8-L1 (antibody, human IgG1, V domains shown)
VH: EVQLVQSGAEVKKPGASVKVSCKASGFTFTRYWMNWVRQAPGQGLEWIGRIDPSDSETHYNHKFWGRATLTVDTSTSTVYMELSSLRSEDTAVYYCLRSLYGKGDYWGQGTTVTVSS
VL: DVVMTQSPLSLPVTLGQPASISCRSSQSIVHSNGNTYLEWFQQRPGQSPRRLIYKVSNRFSGVPDRFSGSGSGTDFTLKISRVEAEDVGVYYCYQGSHVPLTFGGGTKVEIK
For B3, the MFI [4] was 64 MFI.

B4: Hu3F6-H5/Hu3F6-L2 (antibody, human IgG1, V domains shown)
VH: EVQLVQSGAEVKKPGASVKVSCKTSGFAFTSYWMNWVRQAPGQGLEWIGRIDPSDSEAHYAHKFWGRATLTVDKSSSTVYMELSSLRSEDTAVYYCLRSLYGKGDYWGHGTTVTVSS
VL: DVVMTQSPLSLPVTLGQPASISCRSSQSLVHRNGNTYLEWYQQRPGQSPRRLIYKVSNRFSGVPDRFSGSGSGTDFTLKISRVEAEDVGVYYCYQGSHVPLTFGGGTKVEIK
In the case of B4, the MFI [4] is reported as 191 MFI.

B5: Hu3F8-H5/Hu3F8-L4 (antibody, human IgG1, V domains shown)
VH: EVQLVQSGAEVKKPGASVKVSCKASGFTFTRYWMNWVRQAPGQGLEWIGRIDPSDSETHYNAKFWGRATLTVDKSTSTVYMELSSLRSEDTAVYYCLRSLYGKGDYWGQGTTVTVSS
VL: DIVMTQSPLSLPVTPGEPASISCRSSQSIVHSNGNTYLEWYLQKPGQSPQLLIYKVSNRFSGVPDRFSGSGSGTDFTLKISRVEAEDVGVYYCYQGSHVPLTFGGGTKVEIK
notes: Human IgG1 FES (L234F, L235E, P331S) and human Ig kappa constant domains
B5 was tested, and the “IC50 of blocking activity, cAMP-Glo” value [1] was 2.2 nM and the MFI [2] was 1840 MFI.

B6: Hu3F8-H5/Hu3F8-L3 (antibody, human IgG1, V domains shown)
VH: EVQLVQSGAEVKKPGASVKVSCKASGFTFTRYWMNWVRQAPGQGLEWIGRIDPSDSETHYNAKFWGRATLTVDKSTSTVYMELSSLRSEDTAVYYCLRSLYGKGDYWGQGTTVTVSS
VL: DVVMTQSPLSLPVTLGQPASISCRSSQSIVHSNGNTYLEWYQQRPGQSPRLLIYKVSNRFSGVPDRFSGSGSGTDFTLKISRVEAEDVGVYYCYQGSHVPLTFGGGTKVEIK
notes: as for B5
For B6, the “IC50 of blocking activity, cAMP-Glo” value [1] was 1.5 nM and the MFI [2] was 1840 MFI.

B7: Hu3F8-H1/Hu3F8-L5 (antibody, human IgG1, V domains shown)
VH: QVQLVQSGAEVKKPGASVKVSCKASGFTFTRYWMNWVRQAPGQGLEWMGRIDPSDSETHYNHKFWGRVTMTRDTSTSTVYMELSSLRSEDTAVYYCLRSLYGKGDYWGQGTTVTVSS
VL: DVVMTQSPLSLPVTPGEPASISCRSSQSIVHSNGNTYLEWYLQKPGQSPQLLIYKVSNRFSGVPDRFSGSGSGTDFTLKISRVEAEDVGVYYCYQGSHVPLTFGGGTKVEIK
notes: Human IgG1 FES (L234F, L235E, P331S) and human Ig kappa constant domains; also called Hu3F8 VH1/VL5
B7 was tested, and the “IC50 of blocking activity, cAMP-Glo” value [1] was 1.4 nM, the MFI [2] was 1790 MFI and the EC50 [3] was 0.85 nM.

B8: Hu3F8-H2/Hu3F8-L5 (antibody, human IgG1, V domains shown)
VH: EVQLVQSGAEVKKPGASVKVSCKASGFTFTRYWMNWVRQAPGQGLEWMGRIDPSDSETHYNHKFWGRVTMTVDTSTSTVYMELSSLRSEDTAVYYCLRSLYGKGDYWGQGTTVTVSS
VL: DVVMTQSPLSLPVTPGEPASISCRSSQSIVHSNGNTYLEWYLQKPGQSPQLLIYKVSNRFSGVPDRFSGSGSGTDFTLKISRVEAEDVGVYYCYQGSHVPLTFGGGTKVEIK
notes: Human IgG1 FES (L234F, L235E, P331S) and human Ig kappa constant domains; also called Hu3F8 VH2/VL5
B8 was tested, and the “IC50 of blocking activity, cAMP-Glo” value [1] was 1.8 nM, the MFI [2] was 1770 MFI and the EC50 [3] was 0.9 nM.

B9: Hu3F8-H1/Hu3F8-L3 (antibody, human IgG1, V domains shown)
VH: QVQLVQSGAEVKKPGASVKVSCKASGFTFTRYWMNWVRQAPGQGLEWMGRIDPSDSETHYNHKFWGRVTMTRDTSTSTVYMELSSLRSEDTAVYYCLRSLYGKGDYWGQGTTVTVSS
VL: DVVMTQSPLSLPVTLGQPASISCRSSQSIVHSNGNTYLEWYQQRPGQSPRLLIYKVSNRFSGVPDRFSGSGSGTDFTLKISRVEAEDVGVYYCYQGSHVPLTFGGGTKVEIK
notes: as for B5
B9 was tested, and the “IC50 of blocking activity, cAMP-Glo” value [1] was 1.5 nM and the MFI [2] was 1810 MFI.

B10: Hu3F8-H3/Hu3F8-L4 (antibody, human IgG1, V domains shown)
VH: EVQLVQSGAEVKKPGASVKVSCKASGFTFTRYWMNWVRQAPGQGLEWIGRIDPSDSETHYNHKFWGRATLTVDTSTSTVYMELSSLRSEDTAVYYCLRSLYGKGDYWGQGTTVTVSS
VL: DIVMTQSPLSLPVTPGEPASISCRSSQSIVHSNGNTYLEWYLQKPGQSPQLLIYKVSNRFSGVPDRFSGSGSGTDFTLKISRVEAEDVGVYYCYQGSHVPLTFGGGTKVEIK
notes: as for B5
For B10, the “IC50 of blocking activity, cAMP-Glo” value [1] was 1.7 nM and the MFI [2] was 1840 MFI.

B11: Hu3F8-H5/Hu3F8-L5 (antibody, human IgG1, V domains shown)
VH: EVQLVQSGAEVKKPGASVKVSCKASGFTFTRYWMNWVRQAPGQGLEWIGRIDPSDSETHYNAKFWGRATLTVDKSTSTVYMELSSLRSEDTAVYYCLRSLYGKGDYWGQGTTVTVSS
VL: DVVMTQSPLSLPVTPGEPASISCRSSQSIVHSNGNTYLEWYLQKPGQSPQLLIYKVSNRFSGVPDRFSGSGSGTDFTLKISRVEAEDVGVYYCYQGSHVPLTFGGGTKVEIK
notes: as for B5
With B11 the “IC50 of blocking activity, cAMP-Glo” value [1] was 1.6 nM and the MFI [2] was 1900 MFI.

B12: Hu3F8-H3/Hu3F8-L3 (antibody, human IgG1, V domains shown)
VH: EVQLVQSGAEVKKPGASVKVSCKASGFTFTRYWMNWVRQAPGQGLEWIGRIDPSDSETHYNHKFWGRATLTVDTSTSTVYMELSSLRSEDTAVYYCLRSLYGKGDYWGQGTTVTVSS
VL: DVVMTQSPLSLPVTLGQPASISCRSSQSIVHSNGNTYLEWYQQRPGQSPRLLIYKVSNRFSGVPDRFSGSGSGTDFTLKISRVEAEDVGVYYCYQGSHVPLTFGGGTKVEIK
notes: Human IgG1 FES (L234F, L235E, P331S) and human Ig kappa constant domains; also called Hu3F8 VH3/VL3
In the case of B12, the “IC50 of blocking activity, cAMP-Glo” value [1] is reported as 1.1 nM, the MFI [2] is reported as 1860 MFI and the EC50 [3] is reported as 0.69 nM.

B13: Hu3F8-H6/Hu3F8-L4 (antibody, human IgG1, V domains shown)
VH: EVQLVQSGAEVKKPGESLRISCKASGFTFTRYWMNWVRQMPGKGLEWIGRIDPSDSETHYNHKFWGHATLSVDKSSSTVYLQWSSLKASDTAMYYCLRSLYGKGDYWGQGTTVTVSS
VL: DIVMTQSPLSLPVTPGEPASISCRSSQSIVHSNGNTYLEWYLQKPGQSPQLLIYKVSNRFSGVPDRFSGSGSGTDFTLKISRVEAEDVGVYYCYQGSHVPLTFGGGTKVEIK
notes: as for B5
In the case of B13, the “IC50 of blocking activity, cAMP-Glo” value [1] is reported as 2.3 nM and the MFI [2] is reported as 1880 MFI.

B14: Hu3F8-H2/Hu3F8-L3 (antibody, human IgG1, V domains shown)
VH: EVQLVQSGAEVKKPGASVKVSCKASGFTFTRYWMNWVRQAPGQGLEWMGRIDPSDSETHYNHKFWGRVTMTVDTSTSTVYMELSSLRSEDTAVYYCLRSLYGKGDYWGQGTTVTVSS
VL: DVVMTQSPLSLPVTLGQPASISCRSSQSIVHSNGNTYLEWYQQRPGQSPRLLIYKVSNRFSGVPDRFSGSGSGTDFTLKISRVEAEDVGVYYCYQGSHVPLTFGGGTKVEIK
notes: Human IgG1 FES (L234F, L235E, P331S) and human Ig kappa constant domains; also called Hu3F8 VH2/VL3
For B14, the “IC50 of blocking activity, cAMP-Glo” value [1] was 1.1 nM, the MFI [2] was 1800 MFI and the EC50 [3] was 0.66 nM.
